Tests used:
[1] = biological target: Human serum albumin (HSA) (human) (UniProt P02768); assay: bridging ELISA after sample preparation, plate coated with 20 µg/mL HSA, antibody in neat human serum
[2] = biological target: Human serum albumin (HSA) (human) (UniProt P02768); assay: competitive indirect ELISA, antibody in buffer captured on Protein A/G plate, HRP-conjugated HSA detection
[3] = biological target: Human serum albumin (HSA) (human) (UniProt P02768); assay: bridging ELISA (HSA on plate, biotin-HSA in solution), antibody spiked in normal human serum, after Protein A/G enrichment and acid elution
[4] = biological target: Human serum albumin (HSA) (human) (UniProt P02768); assay: competitive indirect ELISA, antibody in 1% pooled normal human serum preincubated with HRP-conjugated HSA, then Protein A/G plate
[5] = biological target: Human serum albumin (HSA) (human) (UniProt P02768); assay: competitive indirect ELISA, antibody in neat human serum, mixed with HRP-conjugated HSA, then Protein A/G plate

Rabbit anti-HSA antibody, ABCAM ab31657
limit of detection [1]: 250 ng/mL | lowest antibody concentration detected [2]: 0.48 ng/mL | detection limit [3]: 125 ng/mL | detection limit [4]: 3 µg/mL | assay sensitivity [5]: 10 µg/mL

Source: patent publication US20130203616A1
